{"source": "paper PMC10492923", "about": "(MedComm, 2023)", "binders": {"B1": {"name": "RBD of HCoV-NL63 (domain or fragment)", "chain": "QHTDINFTATASFGGSCYVCKPHQVNISLNGNTSVCVRTSHFSIRYIYNRVKSGSPGDSSWHIYLKSGTCPFSFSKLNNFQKFKTICFSTVEVPGSCNFPLEATWHYTSYTIVGALYVTWSEGNSITGVPYPVSGI"}}, "molecular_target": "T1, extracellular protease domain of wild-type ACE2 (human, UniProt Q9BYF1 19-615)", "T1 construct": "also called WT ACE2ecd; ACE2ecd", "T1 sequence (Q9BYF1 19-615)": "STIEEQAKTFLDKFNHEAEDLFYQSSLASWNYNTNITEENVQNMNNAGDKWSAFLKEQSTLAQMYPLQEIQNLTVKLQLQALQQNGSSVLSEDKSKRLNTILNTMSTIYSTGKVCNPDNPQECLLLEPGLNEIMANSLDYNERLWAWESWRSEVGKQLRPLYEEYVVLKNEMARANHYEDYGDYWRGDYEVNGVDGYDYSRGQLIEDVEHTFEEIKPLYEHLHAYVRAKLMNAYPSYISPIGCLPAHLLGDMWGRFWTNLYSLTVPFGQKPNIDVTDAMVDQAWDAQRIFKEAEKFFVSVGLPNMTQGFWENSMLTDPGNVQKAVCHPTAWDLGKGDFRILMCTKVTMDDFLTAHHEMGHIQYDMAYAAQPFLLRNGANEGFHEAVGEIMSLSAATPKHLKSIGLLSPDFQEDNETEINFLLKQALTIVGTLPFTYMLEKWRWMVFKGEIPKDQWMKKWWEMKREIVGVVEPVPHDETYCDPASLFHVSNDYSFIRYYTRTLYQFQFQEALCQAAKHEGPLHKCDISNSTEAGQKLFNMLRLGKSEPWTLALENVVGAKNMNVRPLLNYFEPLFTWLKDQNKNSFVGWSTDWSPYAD", "assay": "SPR", "conditions": "both partners purified"}
{"binder": "B1", "values": [{"measurement": "binding result", "value": "binds"}]}
